Source: patent publication US20120231013A1

Biological target: recombinant TIMP-3 (human or mouse; Table 2 does not say which)
Test: AlphaScreen, biotinylated TIMP-3, Assay 1

Chain of recombinant TIMP-3 (human or mouse; Table 2 does not say which) (P35625 24-211): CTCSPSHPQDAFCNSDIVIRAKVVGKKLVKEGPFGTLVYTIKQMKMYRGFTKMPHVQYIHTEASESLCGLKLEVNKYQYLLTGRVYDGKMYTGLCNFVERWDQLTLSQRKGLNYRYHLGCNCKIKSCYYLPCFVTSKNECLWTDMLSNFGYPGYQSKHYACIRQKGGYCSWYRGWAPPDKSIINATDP

CNASSQFLCSSGRCVAEALLCNGQDDCGDSSDERGCHINE [LRP-1 peptide LA20]
total signal (cps): 2200 cps
